Laboratory results reported in the Immune Epitope Database (IEDB).

Columns and labels:
[1] = target: HLA-A*02:02; assay: IEDB peptide-MHC binding, purified MHC/competitive/radioactivity; filed as Kd, often an IC50 or EC50 that approximates it; ≥ and ≤ were set here for values at or beyond the usual limits of such assays
[2] = target: HLA-A*02:06; assay: as above
[3] = target: HLA-A*02:03; assay: as above
[4] = target: HLA-A*02:01; assay: IEDB peptide-MHC binding, purified MHC/competitive/fluorescence; ≥ and ≤ were set here for values at or beyond the usual limits of such assays
[5] = target: HLA-A*26:01; assay: IEDB peptide-MHC binding, purified MHC/competitive/radioactivity; filed as Kd, often an IC50 or EC50 that approximates it; ≥ and ≤ were set here for values at or beyond the usual limits of such assays; details: source organism: Dengue virus 3 Martinique/1243/1999
[6] = target: HLA-A*02:01; assay: IEDB peptide-MHC binding, purified MHC/direct/fluorescence; filed as Kd, often an IC50 or EC50 that approximates it; ≥ and ≤ were set here for values at or beyond the usual limits of such assays
[7] = target: HLA-A*69:01; assay: as above
[8] = target: HLA-A*23:01; assay: IEDB peptide-MHC binding, purified MHC/competitive/radioactivity; filed as Kd, often an IC50 or EC50 that approximates it; ≥ and ≤ were set here for values at or beyond the usual limits of such assays
[9] = target: HLA-A*24:02; assay: as above
[10] = target: HLA-A*01:01; assay: as above
[11] = target: HLA-A*30:02; assay: as above
[12] = source organism: Vaccinia virus WR
[13] = source organism: Zaire ebolavirus
[14] = source organism: SARS coronavirus Tor2
[15] = source organism: Salmonella enterica subsp. enterica serovar Typhimurium
[16] = source organism: Dengue virus 4 Philippines/H241/1956
[17] = source organism: Pseudomonas aeruginosa
[18] = source organism: Dengue virus 1 Brazil/97-11/1997
[19] = source organism: Dengue virus 4 Dominica/814669/1981
[20] = source organism: Dengue virus 2 Jamaica/1409/1983
[21] = source organism: Dengue virus 3 Martinique/1243/1999
[22] = source organism: Vibrio vulnificus YJ016
[23] = source organism: Vaccinia virus Copenhagen
[24] = source organism: Aromatoleum aromaticum
[25] = source organism: Mammarenavirus brazilense
[26] = source organism: Dengue virus 3 Sri Lanka/1266/2000

ETIQKDINIT gave a Kd [1, 12] of 354 nM, a Kd [2, 12] of 112 nM and a Kd [3, 12] of 10.1 nM.
With NNNTHHQDT the IC50 [4, 13] was at least 253000 nM.
ILFQNNDINA showed a Kd [1, 12] of 23.3 nM, a Kd [2, 12] of 3180 nM and a Kd [3, 12] of 407 nM.
For KTVKNVDII, the Kd [1, 12] was 607 nM, the Kd [2, 12] was 698 nM and the Kd [3, 12] was 1790 nM.
For RILGPDCCI, the IC50 ([4]; source organism: Sudan ebolavirus) was 64000 nM.
With ENPYKTWAYH the Kd [5] was at least 34100 nM.
For LALKNSQAEL, the Kd [1, 12] was 741 nM, the Kd [2, 12] was 1250 nM and the Kd [3, 12] was 333 nM.
Work on NTFVNFNSV yielded a Kd [1, 12] of 5020 nM, a Kd [2, 12] of 0.346 nM and a Kd [3, 12] of 99.6 nM.
In the case of IVNSVLLFL, the Kd [1, 14] is reported as 7.06 nM, the Kd [2, 14] is reported as 30.5 nM and the Kd [3, 14] is reported as 179 nM.
With ALSMADIFI the Kd [6, 15] was 106 nM and the Kd [7, 15] was 1080 nM.
In the case of NAILHNIYRL, the Kd [1, 12] is reported as 5610 nM, the Kd [2, 12] is reported as 576 nM and the Kd [3, 12] is reported as 10200 nM.
With NFLEVEDYGF the Kd [8, 16] was 54.7 nM and the Kd [9, 16] was at least 31700 nM.
With IITILQDIV the Kd [1, 12] was 827 nM, the Kd [2, 12] was 658 nM and the Kd [3, 12] was 666 nM.
Sequence ITHTNITTLL has a Kd [1, 12] of 1690 nM, a Kd [2, 12] of 14800 nM and a Kd [3, 12] of 101 nM.
Work on SEELSFTVV yielded an IC50 [4, 13] of at least 145000 nM.
For ACMDGFEVV, the Kd [6, 17] was 290 nM and the Kd [7, 17] was 2700 nM.
For NQLDSSNKSM, the Kd [1, 12] was 1780 nM, the Kd [2, 12] was 635 nM and the Kd [3, 12] was at least 30000 nM.
For EAAAATCALV, the Kd [1, 12] was 1810 nM, the Kd [2, 12] was 60.1 nM and the Kd [3, 12] was 248 nM.
For WTEAKMLLD, the Kd [10, 18] was 943 nM.
With LVSDCASTI the Kd [1, 12] was 48.9 nM, the Kd [2, 12] was 61.3 nM and the Kd [3, 12] was 17.2 nM.
KLAGGVAVL gave an IC50 ([4]; source organism: Porphyromonas gingivalis) of 120 nM.
For ESQMLIPKSY, the Kd [11, 19] was 1210 nM and the Kd [10, 19] was 8370 nM.
Work on SMYTRLRQDT yielded a Kd [1, 12] of 6560 nM, a Kd [2, 12] of at least 42200 nM and a Kd [3, 12] of 1140 nM.
In the case of IYKAPSENW, the Kd ([9]; source organism: Homo sapiens) is reported as 39 nM.
YKTWAYHGSY showed a Kd [11, 20] of 4220 nM.
Sequence GINNVQSLI has a Kd [1, 12] of 474 nM, a Kd [2, 12] of 1730 nM and a Kd [3, 12] of 378 nM.
Work on SKIPGGAMY yielded a Kd [11, 21] of 365 nM.
Work on LIDFYLCFL yielded a Kd [1, 14] of 8.31 nM, a Kd [2, 14] of 10.9 nM and a Kd [3, 14] of 61 nM.
With MMNERDVSV the Kd [1, 12] was 0.441 nM, the Kd [2, 12] was 63.9 nM and the Kd [3, 12] was 0.27 nM.
KVTGSYNLV was tested, and the Kd [1, 12] was 66.3 nM, the Kd [2, 12] was 193 nM and the Kd [3, 12] was 43.1 nM.
RQLQREGLV gave a Kd [6, 22] of at least 5000 nM and a Kd [7, 22] of at least 20000 nM.
Sequence FAISYCRAFI has a Kd [1, 12] of 105 nM, a Kd [2, 12] of 34.5 nM and a Kd [3, 12] of 38.3 nM.
QIGDIIIAV was tested, and the IC50 ([4]; source organism: Variola virus) was 293 nM.
With EQYQQLREA the IC50 [4, 13] was at least 221000 nM.
LLPLTSLVI gave a Kd [1, 12] of 2390 nM, a Kd [2, 12] of 1430 nM and a Kd [3, 12] of 621 nM.
With KLLSTSNVIT the Kd [1, 12] was 2260 nM, the Kd [2, 12] was 1550 nM and the Kd [3, 12] was 3350 nM.
With MLLNVQTLI the Kd [1, 12] was 0.169 nM, the Kd [2, 12] was 0.219 nM and the Kd [3, 12] was 0.25 nM.
TVDFTDCRTI was tested, and the Kd [1, 12] was at least 31800 nM, the Kd [2, 12] was 10600 nM and the Kd [3, 12] was 10400 nM.
Sequence KAALSEGVY has a Kd [11, 19] of 15 nM.
Sequence KLLNMRDLI has a Kd [1, 12] of 496 nM, a Kd [2, 12] of 43.8 nM and a Kd [3, 12] of 329 nM.
GLIAIVMVTI showed a Kd [1, 14] of 7.63 nM, a Kd [2, 14] of 137 nM and a Kd [3, 14] of 18.9 nM.
KLTDSLSSQ gave an IC50 [4, 23] of 44600 nM.
IAEYIAGLKI was tested, and the Kd [1, 12] was at least 28600 nM, the Kd [2, 12] was 10200 nM and the Kd [3, 12] was at least 23000 nM.
GVIHNSTLQ showed an IC50 [4, 13] of at least 121000 nM.
VLEGFEGDL was tested, and the Kd [6, 24] was 17000 nM and the Kd [7, 24] was at least 20000 nM.
VSQHNYRPGY gave a Kd [11, 20] of 385 nM and a Kd [10, 20] of 6790 nM.
For VAMLLTHGA, the Kd [1, 12] was 7160 nM, the Kd [2, 12] was 726 nM and the Kd [3, 12] was 628 nM.
GYATQTVGPW gave a Kd [8, 16] of 549 nM and a Kd [9, 16] of 1290 nM.
With PASISSVLTI the Kd [1, 12] was 1360 nM, the Kd [2, 12] was 1550 nM and the Kd [3, 12] was 83.3 nM.
GLLEWIFRA gave a Kd [1, 25] of 21.9 nM, a Kd [2, 25] of 7.13 nM and a Kd [3, 25] of 225 nM.
In the case of IGNENYLDY, the Kd [11, 18] is reported as 956 nM.
With WHLGKLELDF the Kd [8, 18] was 296 nM.
TYQLWTALV showed a Kd [8, 26] of 58.3 nM and a Kd [9, 26] of 48.3 nM.
Work on IVDTVSALV yielded a Kd [1, 14] of 16.6 nM, a Kd [2, 14] of 42.9 nM and a Kd [3, 14] of 528 nM.
For EIMDKEQLL, the Kd [1, 12] was 183 nM, the Kd [2, 12] was at least 26500 nM and the Kd [3, 12] was 427 nM.
With KILSDENYLL the Kd [1, 12] was 25.2 nM, the Kd [2, 12] was 15.6 nM and the Kd [3, 12] was 3770 nM.
TWRDMAHTLI gave a Kd [9, 21] of 387 nM.
QLLEAVYGN was tested, and the IC50 [4, 23] was 21600 nM.
